Data taken from publication PMC6720452, “Structural Basis for Recruitment of DAPK1 to the KLHL20 E3 Ligase” (Structure(London, England:1993), 2019).

Experiments:
[1] = tested on: full-length KLHL20; test: Cycloheximide chase assay in HEK293T cells; type: cell-based, human; conditions: 100 μg/mL cycloheximide, 0-6h; for Half-life / degradation of DAPK1 on KLHL20 co-expression: with vs without full-length KLHL20, Western blot normalized to GAPDH
From the text: (§1) To confirm the identified “LPDLV” motif as a regulatory site for DAPK1 interaction and degradation, we performed immunoprecipitation and cycloheximide (CHX) chase experiments in HEK293T cells. […] We then performed a CHX chase assay to compare the degradation of DAPK1 variants in the presence or absence of full-length KLHL20.
Figure 6 Mutations in the DAPK1 “LPDLV” Motif Impair DAPK1 Binding and Degradation by KLHL20 (A) Full-length DAPK1 variants and KLHL20 Kelch domain were co-transfected into HEK293T cells as indicated. FLAG-KLHL20 Kelch domain was immunoprecipitated (IP) with anti-FLAG antibody. DAPK1 WT was robustly co-purified with KLHL20, whereas DAPK1 mutant was only recovered at the background level of the beads alone. (B) DAPK1 variants were transfected into HEK293T cells with or without full-length KLHL20 as indicated. At 24 h post transfection, cells were incubated with 100 μg/mL cycloheximide (CHX) and harvested at different time points as indicated. DAPK1 protein levels were detected by western blot and normalized to GAPDH. (C) Quantitation of (B).
For structural and biophysical studies, the Kelch domains of human KLHL20 (Uniprot Q9Y2M5 isoform 1, M303-E605) and KLHL3 (Uniprot Q9UH77 isoform 1, residues S298–L587) were cloned using ligation-independent cloning into the bacterial expression vector pNIC28-Bsa4 (GenBank accession number EF198106), which provides for an N-terminal hexahistidine tag and TEV cleavage site. For cellular assays, full length DAPK1 was cloned into pcDNA3.1(+) providing an N-terminal HA tag. The mutant DAPK1 (1336-‘LPDLV’ motif mutated to ‘LPAAV’) was created in the same vector by site directed mutagenesis. […]
HEK293T cells were cultured as described above until 60% confluency. […] Results were analyzed using Western blotting with corresponding antibodies. GAPDH level in each sample was also detected for control (anti-GAPDH antibody; Thermo Fisher, MA5-15738). Western blot band intensities were quantified using Image Studio Lite Ver 5.2 and normalized for the GADPH control.

[2] = tested on: FLAG-KLHL20 Kelch domain; test: Co-immunoprecipitation of KLHL20 and DAPK1 in HEK293T cells; type: cell-based, human; conditions: FLAG-KLHL20 Kelch domain and HA-DAPK1 full-length co-transfected, 40 hours after transfection, anti-FLAG IP, Western blot
From the text: as §1
Figure 6 Mutations in the DAPK1 “LPDLV” Motif Impair DAPK1 Binding and Degradation by KLHL20 (A) Full-length DAPK1 variants and KLHL20 Kelch domain were co-transfected into HEK293T cells as indicated. FLAG-KLHL20 Kelch domain was immunoprecipitated (IP) with anti-FLAG antibody. DAPK1 WT was robustly co-purified with KLHL20, whereas DAPK1 mutant was only recovered at the background level of the beads alone. (B) DAPK1 variants were transfected into HEK293T cells with or without full-length KLHL20 as indicated. […] DAPK1 protein levels were detected by western blot and normalized to GAPDH. (C) Quantitation of (B). […]
HEK293T cells were cultured in high glucose Dulbecco’s Modified Eagle’s Medium (Sigma-Aldrich) with 5% Penicillin Streptomycin (ThermoFisher) and 10% Fetal Bovine Serum (Sigma-Aldrich) inside a 5% CO2 incubator at 37°C. […] Results were analyzed using Western blotting (Anti-Flag antibody, Sigma-Aldrich, F1804; Anti-HA antibody, Biolegend, 901501; Anti-Myc antibody, Cell signalling, 2040S).

Row | Molecule | Half-life / degradation of DAPK1 on KLHL20 co-expression [1] | Recovery of DAPK1 in KLHL20 immunoprecipitation [2] | Half-life of DAPK1 mutant compared with DAPK1 WT ([1]; with or without full-length KLHL20, Western blot normalized to GAPDH)
1 | DAPK1 WT: full-length HA-DAPK1 wild-type (protein, left off: HA, N-terminal, kept, full-length HA-DAPK1 wild-type) MTVFRQENVDDYYDTGEELGSGQFAVVKKCREKSTGLQYAAKFIKKRRTKSSRRGVSREDIEREVSILKEIQHPNVITLHEVYENKTDVILILELVAGGELFDFLAEKESLTEEEATEFLKQILNGVYYLHSLQIAHFDLKPENIMLLDRNVPKPRIKIIDFGLAHKIDFGNEFKNIFGTPEFVAPEIVNYEPLGLEADMWSIGVITYILLSGASPFLGDTKQETLANVSAVNYEFEDEYFSNTSALAKDFIRRLLVKDPKKRMTIQDSLQHPWIKPKDTQQALSRKASAVNMEKFKKFAARKKWKQSVRLISLCQRLSRSFLSRSNMSVARSDDTLDEEDSFVMKAIIHAINDDNVPGLQHLLGSLSNYDVNQPNKHGTPPLLIAAGCGNIQILQLLIKRGSRIDVQDKGGSNAVYWAARHGHVDTLKFLSENKCPLDVKDKSGEMALHVAARYGHADVAQLLCSFGSNPNIQDKEEETPLHCAAWHGYYSVAKALCEAGCNVNIKNREGETPLLTASARGYHDIVECLAEHGADLNACDKDGHIALHLAVRRCQMEVIKTLLSQGCFVDYQDRHGNTPLHVACKDGNMPIVVALCEANCNLDISNKYGRTPLHLAANNGILDVVRYLCLMGASVEALTTDGKTAEDLARSEQHEHVAGLLARLRKDTHRGLFIQQLRPTQNLQPRIKLKLFGHSGSGKTTLVESLKCGLLRSFFRRRRPRLSSTNSSRFPPSPLASKPTVSVSINNLYPGCENVSVRSRSMMFEPGLTKGMLEVFVAPTHHPHCSADDQSTKAIDIQNAYLNGVGDFSVWEFSGNPVYFCCYDYFAANDPTSIHVVVFSLEEPYEIQLNQVIFWLSFLKSLVPVEEPIAFGGKLKNPLQVVLVATHADIMNVPRPAGGEFGYDKDTSLLKEIRNRFGNDLHISNKLFVLDAGASGSKDMKVLRNHLQEIRSQIVSVCPPMTHLCEKIISTLPSWRKLNGPNQLMSLQQFVYDVQDQLNPLASEEDLRRIAQQLHSTGEINIMQSETVQDVLLLDPRWLCTNVLGKLLSVETPRALHHYRGRYTVEDIQRLVPDSDVEELLQILDAMDICARDLSSGTMVDVPALIKTDNLHRSWADEEDEVMVYGGVRIVPVEHLTPFPCGIFHKVQVNLCRWIHQQSTEGDADIRLWVNGCKLANRGAELLVLLVNHGQGIEVQVRGLETEKIKCCLLLDSVCSTIENVMATTLPGLLTVKHYLSPQQLREHHEPVMIYQPRDFFRAQTLKETSLTNTMGGYKESFSSIMCFGCHDVYSQASLGMDIHASDLNLLTRRKLSRLLDPPDPLGKDWCLLAMNLGLPDLVAKYNTSNGAPKDFLPSPLHALLREWTTYPESTVGTLMSKLRELGRRDAADFLLKASSVFKINLDGNGQEAYASSCNSGTSYNSISSVVSR | striking reduction in the half-life | robustly bound to KLHL20 | –
2 | DAPK1 mutant: full-length DAPK1 mutant in which the critical 1,336-“LPDLV” motif was mutated to “LPAAV” (protein, left off: HA, N-terminal, kept) MTVFRQENVDDYYDTGEELGSGQFAVVKKCREKSTGLQYAAKFIKKRRTKSSRRGVSREDIEREVSILKEIQHPNVITLHEVYENKTDVILILELVAGGELFDFLAEKESLTEEEATEFLKQILNGVYYLHSLQIAHFDLKPENIMLLDRNVPKPRIKIIDFGLAHKIDFGNEFKNIFGTPEFVAPEIVNYEPLGLEADMWSIGVITYILLSGASPFLGDTKQETLANVSAVNYEFEDEYFSNTSALAKDFIRRLLVKDPKKRMTIQDSLQHPWIKPKDTQQALSRKASAVNMEKFKKFAARKKWKQSVRLISLCQRLSRSFLSRSNMSVARSDDTLDEEDSFVMKAIIHAINDDNVPGLQHLLGSLSNYDVNQPNKHGTPPLLIAAGCGNIQILQLLIKRGSRIDVQDKGGSNAVYWAARHGHVDTLKFLSENKCPLDVKDKSGEMALHVAARYGHADVAQLLCSFGSNPNIQDKEEETPLHCAAWHGYYSVAKALCEAGCNVNIKNREGETPLLTASARGYHDIVECLAEHGADLNACDKDGHIALHLAVRRCQMEVIKTLLSQGCFVDYQDRHGNTPLHVACKDGNMPIVVALCEANCNLDISNKYGRTPLHLAANNGILDVVRYLCLMGASVEALTTDGKTAEDLARSEQHEHVAGLLARLRKDTHRGLFIQQLRPTQNLQPRIKLKLFGHSGSGKTTLVESLKCGLLRSFFRRRRPRLSSTNSSRFPPSPLASKPTVSVSINNLYPGCENVSVRSRSMMFEPGLTKGMLEVFVAPTHHPHCSADDQSTKAIDIQNAYLNGVGDFSVWEFSGNPVYFCCYDYFAANDPTSIHVVVFSLEEPYEIQLNQVIFWLSFLKSLVPVEEPIAFGGKLKNPLQVVLVATHADIMNVPRPAGGEFGYDKDTSLLKEIRNRFGNDLHISNKLFVLDAGASGSKDMKVLRNHLQEIRSQIVSVCPPMTHLCEKIISTLPSWRKLNGPNQLMSLQQFVYDVQDQLNPLASEEDLRRIAQQLHSTGEINIMQSETVQDVLLLDPRWLCTNVLGKLLSVETPRALHHYRGRYTVEDIQRLVPDSDVEELLQILDAMDICARDLSSGTMVDVPALIKTDNLHRSWADEEDEVMVYGGVRIVPVEHLTPFPCGIFHKVQVNLCRWIHQQSTEGDADIRLWVNGCKLANRGAELLVLLVNHGQGIEVQVRGLETEKIKCCLLLDSVCSTIENVMATTLPGLLTVKHYLSPQQLREHHEPVMIYQPRDFFRAQTLKETSLTNTMGGYKESFSSIMCFGCHDVYSQASLGMDIHASDLNLLTRRKLSRLLDPPDPLGKDWCLLAMNLGLPAAVAKYNTSNGAPKDFLPSPLHALLREWTTYPESTVGTLMSKLRELGRRDAADFLLKASSVFKINLDGNGQEAYASSCNSGTSYNSISSVVSR | strikingly resistant to KLHL20 co-expression | only recovered at a low background level | exceeded that of DAPK1 WT under any of the conditions above
